Data published in FireProtDB (doi:10.1073/pnas.0711253105).
Values joined by “and” are separate entries in the source; they are usually repeats but may differ in a detail not shown here. Identical values can stand only once.

Settings: Meleagris gallopavo; pH 8; Thermal; Activity; Tris 20 mM; NaCl 0.4 M; structure 2VT4

Beta-1 adrenergic receptor R68S|M90V|V230A|F327A|A334L, P07700 R68S M90V V230A F327A A334L, sequence (P07700 whole entry R68S/M90V/V230A/F327A/A334L): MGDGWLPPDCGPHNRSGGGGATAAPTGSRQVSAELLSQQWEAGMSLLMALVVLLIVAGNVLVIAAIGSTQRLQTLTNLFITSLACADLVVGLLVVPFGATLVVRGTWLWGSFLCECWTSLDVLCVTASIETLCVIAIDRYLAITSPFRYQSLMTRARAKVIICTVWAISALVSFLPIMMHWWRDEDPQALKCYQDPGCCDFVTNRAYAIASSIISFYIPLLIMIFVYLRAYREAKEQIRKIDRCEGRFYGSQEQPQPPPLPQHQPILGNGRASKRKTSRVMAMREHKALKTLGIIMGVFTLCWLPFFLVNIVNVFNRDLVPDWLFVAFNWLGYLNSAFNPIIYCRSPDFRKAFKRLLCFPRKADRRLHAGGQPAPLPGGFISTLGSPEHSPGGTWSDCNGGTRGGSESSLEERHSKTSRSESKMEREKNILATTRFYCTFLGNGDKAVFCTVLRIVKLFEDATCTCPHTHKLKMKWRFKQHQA
Beta-1 adrenergic receptor G67A|G98A|V230A, P07700 G67A G98A V230A, sequence (P07700 whole entry G67A/G98A/V230A): as the sequence (P07700 whole entry R68S/M90V/V230A/F327A/A334L) above, with G67A, S68R, V90M, G98A, A327F, L334A counted along it
Beta-1 adrenergic receptor R68S|A234L|A334L, P07700 R68S A234L A334L, sequence (P07700 whole entry R68S/A234L/A334L): as the sequence (P07700 whole entry R68S/M90V/V230A/F327A/A334L) above, with V90M, A230V, A234L, A327F counted along it
Beta-1 adrenergic receptor M90V|Y227A, P07700 M90V Y227A, sequence (P07700 whole entry M90V/Y227A): as the sequence (P07700 whole entry R68S/M90V/V230A/F327A/A334L) above, with S68R, Y227A, A230V, A327F, L334A counted along it
Beta-1 adrenergic receptor Y227A|A234L|A334L, P07700 Y227A A234L A334L, sequence (P07700 whole entry Y227A/A234L/A334L): as the sequence (P07700 whole entry R68S/M90V/V230A/F327A/A334L) above, with S68R, V90M, Y227A, A230V, A234L, A327F counted along it
Beta-1 adrenergic receptor G67A|G98A|V230A|D322A, P07700 G67A G98A V230A D322A, sequence (P07700 whole entry G67A/G98A/V230A/D322A): as the sequence (P07700 whole entry R68S/M90V/V230A/F327A/A334L) above, with G67A, S68R, V90M, G98A, D322A, A327F, L334A counted along it
Beta-1 adrenergic receptor R68S|M90V|Y227A|V230A|F327A|F338M, P07700 R68S M90V Y227A V230A F327A F338M, sequence (P07700 whole entry R68S/M90V/Y227A/V230A/F327A/F338M): as the sequence (P07700 whole entry R68S/M90V/V230A/F327A/A334L) above, with Y227A, L334A, F338M counted along it
Beta-1 adrenergic receptor G98A|D322A, P07700 G98A D322A, sequence (P07700 whole entry G98A/D322A): as the sequence (P07700 whole entry R68S/M90V/V230A/F327A/A334L) above, with S68R, V90M, G98A, A230V, D322A, A327F, L334A counted along it
Beta-1 adrenergic receptor R68S|A334L, P07700 R68S A334L, sequence (P07700 whole entry R68S/A334L): as the sequence (P07700 whole entry R68S/M90V/V230A/F327A/A334L) above, with V90M, A230V, A327F counted along it
Beta-1 adrenergic receptor R68S|Y227A|A234L|A334L, P07700 R68S Y227A A234L A334L, sequence (P07700 whole entry R68S/Y227A/A234L/A334L): as the sequence (P07700 whole entry R68S/M90V/V230A/F327A/A334L) above, with V90M, Y227A, A230V, A234L, A327F counted along it
Beta-1 adrenergic receptor M90V|F338M, P07700 M90V F338M, sequence (P07700 whole entry M90V/F338M): as the sequence (P07700 whole entry R68S/M90V/V230A/F327A/A334L) above, with S68R, A230V, A327F, L334A, F338M counted along it
Beta-1 adrenergic receptor M90V|Y227A|F338M, P07700 M90V Y227A F338M, sequence (P07700 whole entry M90V/Y227A/F338M): as the sequence (P07700 whole entry R68S/M90V/V230A/F327A/A334L) above, with S68R, Y227A, A230V, A327F, L334A, F338M counted along it
Beta-1 adrenergic receptor R68S|Y227A|A234L|A282L, P07700 R68S Y227A A234L A282L, sequence (P07700 whole entry R68S/Y227A/A234L/A282L): as the sequence (P07700 whole entry R68S/M90V/V230A/F327A/A334L) above, with V90M, Y227A, A230V, A234L, A282L, A327F, L334A counted along it
Beta-1 adrenergic receptor M90V|I129V, P07700 M90V I129V, sequence (P07700 whole entry M90V/I129V): as the sequence (P07700 whole entry R68S/M90V/V230A/F327A/A334L) above, with S68R, I129V, A230V, A327F, L334A counted along it
Beta-1 adrenergic receptor G67A|G98A, P07700 G67A G98A, sequence (P07700 whole entry G67A/G98A): as the sequence (P07700 whole entry R68S/M90V/V230A/F327A/A334L) above, with G67A, S68R, V90M, G98A, A230V, A327F, L334A counted along it
Beta-1 adrenergic receptor R68S|M90V|V230A|A334L, P07700 R68S M90V V230A A334L, sequence (P07700 whole entry R68S/M90V/V230A/A334L): as the sequence (P07700 whole entry R68S/M90V/V230A/F327A/A334L) above, with A327F counted along it
Beta-1 adrenergic receptor R68S|M90V|Y227A|V230A|F327A|A334L, P07700 R68S M90V Y227A V230A F327A A334L, sequence (P07700 whole entry R68S/M90V/Y227A/V230A/F327A/A334L): as the sequence (P07700 whole entry R68S/M90V/V230A/F327A/A334L) above, with Y227A counted along it

Substance	Tm	change of melting temperature, mutant - wild type (higher = more stable)
Beta-1 adrenergic receptor G67A|G98A, P07700 G67A G98A	35.5 °C	3.8 °C
Beta-1 adrenergic receptor G67A|G98A|V230A, P07700 G67A G98A V230A	38 °C	6.3 °C
Beta-1 adrenergic receptor G67A|G98A|V230A|D322A, P07700 G67A G98A V230A D322A	40.9 °C	9.2 °C
Beta-1 adrenergic receptor G98A|D322A, P07700 G98A D322A	35 °C	3.3 °C
Beta-1 adrenergic receptor M90V|F338M, P07700 M90V F338M	43 °C	11.3 °C
Beta-1 adrenergic receptor M90V|I129V, P07700 M90V I129V	40 °C	8.3 °C
Beta-1 adrenergic receptor M90V|Y227A, P07700 M90V Y227A	45.2 °C	13.5 °C
Beta-1 adrenergic receptor M90V|Y227A|F338M, P07700 M90V Y227A F338M	45.2 °C	13.5 °C
Beta-1 adrenergic receptor R68S|A234L|A334L, P07700 R68S A234L A334L	41.9 °C	10.2 °C
Beta-1 adrenergic receptor R68S|A334L, P07700 R68S A334L	39.1 °C	7.4 °C
Beta-1 adrenergic receptor R68S|M90V|V230A|A334L, P07700 R68S M90V V230A A334L	46.9 °C	15.2 °C
Beta-1 adrenergic receptor R68S|M90V|V230A|F327A|A334L, P07700 R68S M90V V230A F327A A334L	47.3 °C and 48.4 °C	15.6 °C and 16.7 °C
Beta-1 adrenergic receptor R68S|M90V|Y227A|V230A|F327A|A334L, P07700 R68S M90V Y227A V230A F327A A334L	48.2 °C	16.5 °C
Beta-1 adrenergic receptor R68S|M90V|Y227A|V230A|F327A|F338M, P07700 R68S M90V Y227A V230A F327A F338M	49 °C	17.3 °C
Beta-1 adrenergic receptor R68S|Y227A|A234L|A282L, P07700 R68S Y227A A234L A282L	41.6 °C	9.9 °C
Beta-1 adrenergic receptor R68S|Y227A|A234L|A334L, P07700 R68S Y227A A234L A334L	43.7 °C	12 °C
Beta-1 adrenergic receptor Y227A|A234L|A334L, P07700 Y227A A234L A334L	41.6 °C	9.9 °C
